This passage reports Peptide exchange results from patent US10745460B2, “Peptides and combination of peptides for use in immunotherapy against various tumors” (Immatics Biotechnologies GmbH, priority 2015, dated 2020).

The target of this test is HLA-A*02:01 (Homo sapiens, UniProt P04439, D140Y/D185E/D98H/E176V/E277Q/G131W/G231S/I119V/I121R/I166T/I218V/L300P/L318F/N151K/N90K/P208A/P217A/Q86G/Q94H/R138H/R169H/T345S). Description: MHC binding assay: UV-ligand exchange with β2m ELISA (peptide exchange yield). As to conditions: binding to HLA-A*02:01 evaluated by peptide exchange yield (UV-ligand exchange, β2m ELISA). The text has this:
Candidate peptides for T cell based therapies according to the present invention were further tested for their MHC binding capacity (affinity). The individual peptide-MHC complexes were produced by UV-ligand exchange, where a UV-sensitive peptide is cleaved upon UV-irradiation, and exchanged with the peptide of interest as analyzed. Only peptide candidates that can effectively bind and stabilize the peptide-receptive MHC molecules prevent dissociation of the MHC complexes. To determine the yield of the exchange reaction, an ELISA was performed based on the detection of the light chain (β2m) of stabilized MHC complexes. The assay was performed as generally described in Rodenko et al. (Rodenko et al., 2006).
96 well MAXISorp plates (NUNC) were coated over night with 2 ug/ml streptavidin in PBS at room temperature, washed 4× and blocked for 1 h at 37° C. in 2% BSA containing blocking buffer. Refolded HLA-A*02:01/MLA-001 monomers served as standards, covering the range of 15-500 ng/ml. Peptide-MHC monomers of the UV-exchange reaction were diluted 100 fold in blocking buffer. Samples were incubated for 1 h at 37° C., washed four times, incubated with 2 ug/ml HRP conjugated anti-β2m for 1 h at 37° C., washed again and detected with TMB solution that is stopped with […]. Absorption was measured at 450 nm. Candidate peptides that show a high exchange yield (preferably higher than 50%, most preferred higher than 75%) are generally preferred for a generation and production of antibodies or fragments thereof, and/or T cell receptors or fragments thereof, as they show sufficient avidity to the MHC molecules and prevent dissociation of the MHC complexes.
For orientation: An ELISA detects its analyte on a solid surface through an enzyme-linked reagent.
With “1 (KLQEKIQEL; listed as Homo sapiens) [compound 1]”, the Peptide exchange entry is “++++ (≥75% = ++++)”.

With “3 (RVIDDSLVVGV; listed as Homo sapiens) [compound 3]”, the Peptide exchange result is “+++ (≥50 = +++)”.

“4 (VLFGELPAL; listed as Homo sapiens) [compound 4]”: the Peptide exchange entry was “+++ (≥50 = +++)”.

As for “5 (GLVDIMVHL; listed as Homo sapiens) [compound 5]”, the Peptide exchange result was “+++ (≥50 = +++)”.

In the case of “6 (FLNAIETAL; listed as Homo sapiens) [compound 6]”, the Peptide exchange result is on record as “++++ (≥75% = ++++)”.

For the substance “7 (ALLQALMEL; listed as Homo sapiens) [compound 7]”, the Peptide exchange entry was “+++ (≥50 = +++)”.

For “9 (SLITGQDLLSV; listed as Homo sapiens) [compound 9]”, the Peptide exchange result was “+++ (≥50 = +++)”.

Regarding “10 (QLIEKNWLL; listed as Homo sapiens) [compound 10]”, the Peptide exchange entry is given as “+++ (≥50 = +++)”.

Consider “11 (LLDPKTIFL; listed as Homo sapiens) [compound 11]”, for which the Peptide exchange result was “+++ (≥50 = +++)”.

As for “12 (RLLDPKTIFL; listed as Homo sapiens) [compound 12]”, the Peptide exchange result is on record as “+++ (≥50 = +++)”.

On to “13 (RLHDENILL; listed as Homo sapiens) [compound 13]”, for which the Peptide exchange entry is recorded as “+++ (≥50 = +++)”.

“14 (YTFSGDVQL; listed as Homo sapiens) [compound 14]”: the Peptide exchange result is recorded as “+++ (≥50 = +++)”.

Take “16 (SLADLSLLL; listed as Homo sapiens) [compound 16]”: the Peptide exchange entry is reported as “+++ (≥50 = +++)”.

For “17 (GLLPSAESIKL; listed as Homo sapiens) [compound 17]”, the Peptide exchange entry is reported as “++++ (≥75% = ++++)”.

For “18 (KTASINQNV; listed as Homo sapiens) [compound 18]”, the Peptide exchange entry is recorded as “++ (≥20% = ++)”.

Regarding “19 (KVFELDLVTL; listed as Homo sapiens) [compound 19]”, the Peptide exchange result is “++ (≥20% = ++)”.

For “20 (ALVEKGEFAL; listed as Homo sapiens) [compound 20]”, the Peptide exchange entry is recorded as “++ (≥20% = ++)”.

Take “21 (YLMDDFSSL; listed as Homo sapiens) [compound 21]”: the Peptide exchange entry is “+++ (≥50 = +++)”.

On to “22 (LMYPYIYHV; listed as Homo sapiens) [compound 22]”, for which the Peptide exchange entry is “+++ (≥50 = +++)”.

Take “23 (ALLSPLSLA; listed as Homo sapiens) [compound 23]”: the Peptide exchange entry is “+++ (≥50 = +++)”.

Consider “24 (KVWSDVTPL; listed as Homo sapiens) [compound 24]”, for which the Peptide exchange result is “+++ (≥50 = +++)”.

Turning to “25 (LLWGHPRVALA; listed as Homo sapiens) [compound 25]”, the Peptide exchange entry is given as “+++ (≥50 = +++)”.

Consider “26 (VLDGKVAVV; listed as Homo sapiens) [compound 26]”, for which the Peptide exchange result is listed as “+++ (≥50 = +++)”.

With “27 (GLLGKVTSV; listed as Homo sapiens) [compound 27]”, the Peptide exchange result is “+++ (≥50 = +++)”.

With “28 (IKVTDPQLLEL; listed as Homo sapiens) [compound 28]”, the Peptide exchange result was “++ (≥20% = ++)”.

Turning to “29 (KMISAIPTL; listed as Homo sapiens) [compound 29]”, the Peptide exchange entry was “++ (≥20% = ++)”.

Take “30 (IITEVITRL; listed as Homo sapiens) [compound 30]”: the Peptide exchange result is recorded as “+++ (≥50 = +++)”.

In the case of “31 (GLLETTGLLAT; listed as Homo sapiens) [compound 31]”, the Peptide exchange entry is “+++ (≥50 = +++)”.

Regarding “33 (TLDRNSLYV; listed as Homo sapiens) [compound 33]”, the Peptide exchange entry was “++ (≥20% = ++)”.

As for “34 (TLNTLDINL; listed as Homo sapiens) [compound 34]”, the Peptide exchange entry is “+++ (≥50 = +++)”.

Take “35 (VIIKGLEEI; listed as Homo sapiens) [compound 35]”: the Peptide exchange result is “++ (≥20% = ++)”.

For “36 (TVLQELINV; listed as Homo sapiens) [compound 36]”, the Peptide exchange result is “+++ (≥50 = +++)”.

With “37 (QIVELIEKI; listed as Homo sapiens) [compound 37]”, the Peptide exchange entry is “++ (≥20% = ++)”.

For the substance “38 (VLQQESNFL; listed as Homo sapiens) [compound 38]”, the Peptide exchange entry was “++ (≥20% = ++)”.

“39 (YLEDGFAYV; listed as Homo sapiens) [compound 39]”: the Peptide exchange entry is reported as “+++ (≥50 = +++)”.

As to “40 (KIWEELSVLEV; listed as Homo sapiens) [compound 40]”, the Peptide exchange result was “+++ (≥50 = +++)”.

Turning to “41 (IVTEIISEI; listed as Homo sapiens) [compound 41]”, the Peptide exchange entry is on record as “+++ (≥50 = +++)”.

Turning to “42 (KQMSISTGL; listed as Homo sapiens) [compound 42]”, the Peptide exchange entry was “++ (≥20% = ++)”.

For the substance “44 (AVFNLVHVV; listed as Homo sapiens) [compound 44]”, the Peptide exchange result is given as “+++ (≥50 = +++)”.

Turning to “45 (FLPVSVVYV; listed as Homo sapiens) [compound 45]”, the Peptide exchange result is “+++ (≥50 = +++)”.

Regarding “47 (GLNGFNVLL; listed as Homo sapiens) [compound 47]”, the Peptide exchange entry is recorded as “+++ (≥50 = +++)”.

Turning to “48 (KISDFGLATV; listed as Homo sapiens) [compound 48]”, the Peptide exchange entry is recorded as “+++ (≥50 = +++)”.

For “49 (KLIGNIHGNEV; listed as Homo sapiens) [compound 49]”, the Peptide exchange result is reported as “++ (≥20% = ++)”.

For “50 (ILLSVLHQL; listed as Homo sapiens) [compound 50]”, the Peptide exchange result was “+++ (≥50 = +++)”.

Consider “51 (LDSEALLTL; listed as Homo sapiens) [compound 51]”, for which the Peptide exchange result was “++ (≥20% = ++)”.

“52 (TIGIPFPNV; listed as Homo sapiens) [compound 52]”: the Peptide exchange result is reported as “++ (≥20% = ++)”.

For the substance “53 (AQHLSTLLL; listed as Homo sapiens) [compound 53]”, the Peptide exchange entry was “+ (≥10% = +)”.

With “54 (YLVPGLVAA; listed as Homo sapiens) [compound 54]”, the Peptide exchange result is listed as “+++ (≥50 = +++)”.

Turning to “55 (HLFDKIIKI; listed as Homo sapiens) [compound 55]”, the Peptide exchange entry is reported as “+++ (≥50 = +++)”.

For the substance “57 (TLYPGRFDYV; listed as Homo sapiens) [compound 57]”, the Peptide exchange result is given as “++ (≥20% = ++)”.

On to “58 (HLLGEGAFAQV; listed as Homo sapiens) [compound 58]”, for which the Peptide exchange result is on record as “+++ (≥50 = +++)”.

Consider “59 (ALADGIKSFLL; listed as Homo sapiens) [compound 59]”, for which the Peptide exchange result is given as “+++ (≥50 = +++)”.

As to “60 (YLFSQGLQGL; listed as Homo sapiens) [compound 60]”, the Peptide exchange entry is on record as “+++ (≥50 = +++)”.

Consider “61 (ALYPKEITL; listed as Homo sapiens) [compound 61]”, for which the Peptide exchange entry is on record as “+++ (≥50 = +++)”.

Consider “62 (SLVENIHVL; listed as Homo sapiens) [compound 62]”, for which the Peptide exchange result is “+++ (≥50 = +++)”.

“63 (KLLPMVIQL; listed as Homo sapiens) [compound 63]”: the Peptide exchange entry was “+++ (≥50 = +++)”.

Regarding “64 (SLYAGSNNQV; listed as Homo sapiens) [compound 64]”, the Peptide exchange result is “++ (≥20% = ++)”.

Consider “65 (SLSEKSPEV; listed as Homo sapiens) [compound 65]”, for which the Peptide exchange entry was “++ (≥20% = ++)”.

“66 (AMFPDTIPRV; listed as Homo sapiens) [compound 66]”: the Peptide exchange result was “++ (≥20% = ++)”.

Consider “67 (FLIENLLAA; listed as Homo sapiens) [compound 67]”, for which the Peptide exchange entry is on record as “+++ (≥50 = +++)”.

Turning to “68 (QLMNLIRSV; listed as Homo sapiens) [compound 68]”, the Peptide exchange entry is “+++ (≥50 = +++)”.

On to “69 (LKVLKADVVL; listed as Homo sapiens) [compound 69]”, for which the Peptide exchange entry is listed as “++ (≥20% = ++)”.

For “70 (GLTEKTVLV; listed as Homo sapiens) [compound 70]”, the Peptide exchange result is listed as “++ (≥20% = ++)”.

As for “71 (HMSGKLTNV; listed as Homo sapiens) [compound 71]”, the Peptide exchange result is reported as “++ (≥20% = ++)”.

On to “72 (VLSTRVTNV; listed as Homo sapiens) [compound 72]”, for which the Peptide exchange entry is on record as “++ (≥20% = ++)”.

In the case of “74 (GLAFLPASV; listed as Homo sapiens) [compound 74]”, the Peptide exchange entry is “++ (≥20% = ++)”.

Turning to “75 (ALLDGALQL; listed as Homo sapiens) [compound 75]”, the Peptide exchange result was “+++ (≥50 = +++)”.
